Source: patent US20210079074A1 (Alector, published 2021)
Substitutions are numbered along the chain they refer to.

B1: anti-MS4A4A antibody 4A-305 (antibody, human IgG1, V domains shown)
VH: EVQLVQSGAEVKKPGATVKISCKVSGYTFTNYWMQWVQQAPGKGLEWMGATHPGHGDTRYAEKFQGRVTITADTSTDTAYMELSSLRSEDTAVYYCAREEVYYGFRSYWYFDVWGRGTLVTVSS
VL: DIVMTQSPDSLAVSLGERATINCRASESVDNYGVSFMNWYQQKPGQPPKLLIYGASNQGSGVPDRFSGSGSGTDFTLTISSLQAEDVAVYYCQQSKEVPPTFGGGTKVEIK
notes: human IgG1/kappa
B2: anti-MS4A4A antibody 4A-303 (antibody, human IgG1, V domains shown)
VH: EVQLVQSGAEVKKPGESLKISCKGSGYTFTNYWMQWVRQMPGKGLEWMGATHPGHGDTRYSPSFQGQVTISADKSISTAYLQWSSLKASDTAMYYCAREEVYYGFRSYWYFDVWGRGTLVTVSS
VL: B1 VL
notes: human IgG1/kappa
B3: anti-MS4A4A antibody 4A-311 (antibody, human IgG1, V domains shown)
VH: B1 VH with T74K, D77S
VL: B1 VL
notes: human IgG1/kappa
B4: anti-MS4A4A antibody 4A-307 (antibody, human IgG1, V domains shown)
VH: QVQLVQSGAEVKKPGASVKVSCKASGYTFTNYWMQWVRQAPGQGLEWMGATHPGHGDTRYAQKFQGRVTMTADKSTSTVYMELSSLRSEDTAVYYCAREEVYYGFRSYWYFDVWGRGTLVTVSS
VL: B1 VL
notes: human IgG1/kappa
B5: anti-MS4A4A antibody 4A-310 (antibody, human IgG1, V domains shown)
VH: B2 VH with I76S
VL: B1 VL
notes: human IgG1/kappa
B6: anti-MS4A4A antibody 4A-306 (antibody, human IgG1, V domains shown)
VH: B4 VH with A72R, K74T
VL: DIQMTQSPSSLSASVGDRVTITCRASESVDNYGVSFMNWYQQKPGKAPKLLIYGASNQGSGVPSRFSGSGSGTDFTLTISSLQPEDFATYYCQQSKEVPPTFGGGTKVEIK
notes: human IgG1/kappa
B7: anti-MS4A4A antibody 4A-340 (antibody, human IgG1, V domains shown)
VH: QVQLVQSGAEVKKPGASVKVSCKASGYIFTSYGLSWVRQAPGQRLEWMGWINTYSGVPTYSQKFQGRVTITLDTSASTTYMELSSLRSEDTAVYYCARSLVDYWGQGTLVTVSS
VL: DVVMTQTPLSLSVTPGQPASISCKSSQSLLYSDGKTYLSWYLQKPGQPPQLLIYLVSKLDSGVPDRFSGSGSGTDFTLKISRVEAEDVGVYYCWQGIDFHQTFGGGTKVEIK
notes: humanized 4A-21; human IgG1/kappa
B8: anti-MS4A4A antibody 4A-341 (antibody, human IgG1, V domains shown)
VH: B7 VH with L72R, T79A
VL: B7 VL
notes: as for B7
B9: anti-MS4A4A antibody 4A-345 (antibody, human IgG1, V domains shown)
VH: B7 VH with L72R, T79A
VL: B7 VL with V2I
notes: as for B7
B10: anti-MS4A4A antibody 4A-347 (antibody, human IgG1, V domains shown)
VH: B7 VH
VL: B7 VL with V2I
notes: as for B7

Molecular target: T1, recombinant MS4A4A soluble polypeptide JS1
T1 construct: also called JS1.His; loop grafted antigen
Experiment: ELISA, 1 ug/ml antibody
Protocol: Anti-MS4A4A antibodies of the present disclosure were tested for their ability to bind to the different recombinant MS4A4A soluble polypeptides, as described in Example 2, as follows. Nucleic acid encoding the VH and VL domains of humanized anti-MS4A4A antibodies of the present disclosure were cloned into pcDNA3.4 vector which contains either the human IgG1 heavy chain constant domain or human kappa constant domain. The humanized anti-MS4A4A antibodies were expressed in Expi293 cells and were purified by Mab select antibody purification resin (GE Healthcare Life Science, cat#17519902) following the manufacture's protocol. ELISA was performed to measure binding of anti-MS4A4A antibodies of the present disclosure the recombinant MS4A4A soluble polypeptides. 1 μg/ml biotinylated antigens were preincubated on the streptavidin-coated ELISA plates (Thermo Scientific, cat#PI15120) for 1 hour. Plates were washed 3 times, followed by the addition of antibodies (1 μg/ml, 0.33 μg/ml, and 0.11 μg/ml antibodies. Plates were incubated at room temperature with shaking for 1 hr, washed 3 times, then 1/2500 dilution of HRP conjugates goat anti human kappa antibodies added (SigmaAldrich cat#. A7164-1ML).

| Binder | OD450 |
| --- | --- |
| B1 | 0.116 |
| B2 | 0.121 |
| B3 | 0.122 |
| B4 | 0.126 |
| B5 | 0.118 |
| B6 | 0.12 |
| B7 | 0.146 |
| B8 | 0.162 |
| B9 | 0.132 |
| B10 | 0.141 |
